# B1: IF091 (鼠源单克隆抗体mab22) (antibody, V domains shown)
# VH: EVKLVESGGGLVQPGGSLKLSCVASGFTFSSYTMSWVRQTPEKRLELVAEISSSGGSTYYPDTVKGRFTISRDNAKNTLFLQMNSLKSEDTAMYYCARPGLGAWFAYWGQGTLVTVSA
# VL: DVLMTQTPLSLPVSLGDQASISCRSSQSIVHNSGNTYLEWYLQKPGQSPKLLIYKVSNRFSGVPDRFSGSGSGTDFTLKISRVEAEDLGIYYCFQFSHVPRTFGGGTKLEIK
# Experiments:
# 人TIGIT-hFc (human) = 人TIGIT-hFc (human) (UniProt Q495A1); assay: blocking ELISA: Bio-CD155 on coated TIGIT-hFc; reference Ref1
# [1] = molecular target: T1, CHO-K1-T1001细胞表达的人TIGIT (human) (UniProt Q495A1); assay: cell ELISA on fixed CHO-K1-T1001 cells; reference Ref1
# T1 sequence (looked up): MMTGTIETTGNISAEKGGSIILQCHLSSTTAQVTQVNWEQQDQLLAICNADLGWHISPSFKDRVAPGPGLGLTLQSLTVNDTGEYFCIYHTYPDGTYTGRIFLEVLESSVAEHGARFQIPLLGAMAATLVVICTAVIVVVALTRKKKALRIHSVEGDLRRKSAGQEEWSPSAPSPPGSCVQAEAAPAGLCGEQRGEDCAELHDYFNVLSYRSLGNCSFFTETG
binder,measurement,setting,value
B1,fold better than Ref1 (阻断活性),人TIGIT-hFc (human),1.83 fold
same,fold better than Ref1 (结合活性),[1],1.73 fold
